Test results published in patent US20210347873A1 (SHANGHAI PHARMAEXPLORER, published 2021).

T1: cynomolgus BLyS (full length, arginine to histidine at position 132) on CHO-K1 cells (cynomolgus, UniProt Q9Y275 1-285 (human entry))
T1 construct: also called cyno BLyS; CHO-K1 cynoBLyS
T1 chain: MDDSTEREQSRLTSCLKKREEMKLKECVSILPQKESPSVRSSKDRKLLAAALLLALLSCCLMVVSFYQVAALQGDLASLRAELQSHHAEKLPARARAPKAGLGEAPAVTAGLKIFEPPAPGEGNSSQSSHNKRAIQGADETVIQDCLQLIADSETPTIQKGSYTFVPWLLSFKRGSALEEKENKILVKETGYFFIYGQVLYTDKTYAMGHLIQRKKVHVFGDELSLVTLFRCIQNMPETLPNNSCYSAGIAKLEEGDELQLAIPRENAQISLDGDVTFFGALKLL

B1: 78C11D2D12 (antibody, V domains shown)
VH: QVQLQQSGAELVRPGTSVKISCKASGYAFTNYWLGWVKQRPGHGLEWIGDIYPGSGNTYYNEKFKGKATLTADKSSSTAYMQLSSLTSEDSAVFFCAAYLYAMDYWGQGTSVTVSS
VL: QIVLTQSPAIMSASPGEKVTITCSASSSVSYMHWFQQKPGTSPKLWIYSASNLASGVPARFSGSGSGTSYSLTISRMEAEDAATYYCQQRGSYPFTFGSGTKLEIK
notes: Mouse hybridoma monoclonal antibody purified on Protein G
B2: 67A2E1D10 (antibody, V domains shown)
VH: EVQLQQSGAELVKPGASVKLSCTASGFNIKNYYMHWVKQRTEEGLEWIGRIDPEDGETKYAPKFQAKATITADTSSNTAYLQLSSLTSEDTAVYFCARKGYYGNYGAWFAYWGQGTLVTVSA
VL: DIQMTQSPASLSVSVGETVTITCRASEDLYSNLAWYQQKQGKSPQLLVYAATFLADGVPSRFSGSGSGTQYSLKINSLQSEDFGNYYCQHFWGTPPTFGGGTKLEIK
notes: as for B1
B3: 89A2G5E7 (antibody, V domains shown)
VH: QVQLKESGPGLVAPSQSLSITCTVSGLSLNSHDISWIRQPPGKGLEWLGVIWSGGGTKYNSAFMSRLSISKDNSKSQVFLKMNSLHTDDTAIYYCVRTPSMITYSAMDYWGQGTSVTVSS
VL: EIVLTQSPALMAASPGEKVTITCSVSSSISSRNLHWYQQKSQTSPKAWIHATSNLASGVPVRFSGSGSGTSYSLTISSMEAEDAATYYCQQWSSYPLTFGSGTKLEIK
notes: as for B1

Experiments:
mouse BLyS protein = mouse BLyS protein (mouse, UniProt Q9WU72 69-309); test: cell-based or functional assay
[1] = biological target: T2, human BLyS (full length, arginine to histidine at position 132) on CHO-K1 cells (human, UniProt Q9Y275 1-285); test: flow cytometry, CHO-K1 hBLyS cells, antibody 0 nM
T2 construct: also called hBLyS; CHO-K1 hBLyS
Description: (§1) The medium was aspirated completely, and the cells were rinsed once with PBS buffer (purchased from Invitrogen) and then treated with cell dispersion solution (TrypLE™ Express Enzyme, purchased from Life technology) and collected. The detailed steps are as follows: the cells were rinsed once with PBS buffer, after counting, the cells were diluted to 2×10⁶ cells/ml with PBS buffer, blocked with 2% (w/w) fetal bovine serum and incubated on ice for 30 minutes. 200 μL of which per well was aliquoted into a 96-well FACS plate and centrifuged at 2000 rpm at 4° C., then each 100 μL of the lead antibodies obtained from Embodiment 1 and 2 were aliquoted into each well and incubated on ice for 1 hour. […] After centrifuged and rinsed 3 times with FACS buffer, cells were suspended with 200 μL of FACS buffer and the results were detected and analyzed by FACS (FACS Calibur, purchased from BD). It was shown in Tables 12-13 that the lead antibody could bind to human BLyS protein on the cell surface and the lead antibody could cross-react with cynomolgus BLyS. The data in the table is MFI, the average fluorescence intensity of the cell population.

[2] = biological target: T2, human BLyS (full length, arginine to …); test: flow cytometry, CHO-K1 hBLyS cells, antibody 13.3 nM
Description: as §1

[3] = biological target: T2, human BLyS (full length, arginine to …); test: flow cytometry, CHO-K1 hBLyS cells, antibody 2.67 nM
Description: as §1

[4] = biological target: T2, human BLyS (full length, arginine to …); test: flow cytometry, CHO-K1 hBLyS cells, antibody 66.7 nM
Description: as §1

[5] = biological target: T1, cynomolgus BLyS (full length, arginine …); test: flow cytometry, CHO-K1 cynoBLyS cells, antibody 0 nM
Description: as §1

[6] = biological target: T2, human BLyS (full length, arginine to …); test: flow cytometry, CHO-K1 hBLyS cells, antibody 0.107 nM
Description: as §1

[7] = biological target: T2, human BLyS (full length, arginine to …); test: flow cytometry, CHO-K1 hBLyS cells, antibody 0.534 nM
Description: as §1

[8] = biological target: T2, human BLyS (full length, arginine to …); test: flow cytometry, CHO-K1 hBLyS cells, antibody 0.0213 nM
Description: as §1

[9] = biological target: T2, human BLyS (full length, arginine to …); test: flow cytometry, CHO-K1 hBLyS cells, antibody 0.00427 nM
Description: as §1

[10] = biological target: T1, cynomolgus BLyS (full length, arginine …); test: flow cytometry, CHO-K1 cynoBLyS cells, antibody 13.3 nM
Description: as §1

[11] = biological target: T1, cynomolgus BLyS (full length, arginine …); test: flow cytometry, CHO-K1 cynoBLyS cells, antibody 2.67 nM
Description: as §1

[12] = biological target: T1, cynomolgus BLyS (full length, arginine …); test: flow cytometry, CHO-K1 cynoBLyS cells, antibody 66.7 nM
Description: as §1

[13] = biological target: T1, cynomolgus BLyS (full length, arginine …); test: flow cytometry, CHO-K1 cynoBLyS cells, antibody 0.107 nM
Description: as §1

[14] = biological target: T1, cynomolgus BLyS (full length, arginine …); test: flow cytometry, CHO-K1 cynoBLyS cells, antibody 0.534 nM
Description: as §1

[15] = biological target: T1, cynomolgus BLyS (full length, arginine …); test: flow cytometry, CHO-K1 cynoBLyS cells, antibody 0.0213 nM
Description: as §1

[16] = biological target: T1, cynomolgus BLyS (full length, arginine …); test: flow cytometry, CHO-K1 cynoBLyS cells, antibody 0.00427 nM
Description: as §1

[17] = biological target: hBLyS-ECD (His-tagged extracellular domain of human BLyS protein, Ala134-Leu285) (human, UniProt Q9Y275 134-285); test: cell-based or functional assay

Sequence of mouse BLyS protein (Q9WU72 69-309): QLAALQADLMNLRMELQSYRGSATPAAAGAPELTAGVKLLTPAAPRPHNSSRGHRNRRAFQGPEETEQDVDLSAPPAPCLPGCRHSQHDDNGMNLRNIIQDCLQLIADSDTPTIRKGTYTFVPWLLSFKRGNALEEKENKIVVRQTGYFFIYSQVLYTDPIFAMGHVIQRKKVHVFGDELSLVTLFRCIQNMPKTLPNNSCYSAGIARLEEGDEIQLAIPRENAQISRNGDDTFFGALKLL
T2 sequence (Q9Y275 whole entry R130H): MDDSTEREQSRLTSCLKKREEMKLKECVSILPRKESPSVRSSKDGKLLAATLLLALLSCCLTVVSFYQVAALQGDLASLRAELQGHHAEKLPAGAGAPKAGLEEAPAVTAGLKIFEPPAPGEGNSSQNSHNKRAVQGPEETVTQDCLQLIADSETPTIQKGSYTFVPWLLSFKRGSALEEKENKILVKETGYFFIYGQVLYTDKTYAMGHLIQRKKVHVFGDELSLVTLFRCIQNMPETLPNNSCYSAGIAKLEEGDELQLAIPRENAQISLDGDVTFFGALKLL

Row | Binder | mouse B lymphocyte proliferation (OD450 nm), antibody 0 nM (mouse BLyS protein) [OD450 nm] | mouse B lymphocyte proliferation (OD450 nm), antibody 0.000256 nM (mouse BLyS protein) [OD450 nm] | mouse B lymphocyte proliferation (OD450 nm), antibody 0.00128 nM (mouse BLyS protein) [OD450 nm] | mouse B lymphocyte proliferation (OD450 nm), antibody 0.0064 nM (mouse BLyS protein) [OD450 nm] | mouse B lymphocyte proliferation (OD450 nm), antibody 0.032 nM (mouse BLyS protein) [OD450 nm] | mouse B lymphocyte proliferation (OD450 nm), antibody 0.16 nM (mouse BLyS protein) [OD450 nm] | mouse B lymphocyte proliferation (OD450 nm), antibody 0.8 nM (mouse BLyS protein) [OD450 nm] | mouse B lymphocyte proliferation (OD450 nm), antibody 4 nM (mouse BLyS protein) [OD450 nm] | mouse B lymphocyte proliferation (OD450 nm), antibody 20 nM (mouse BLyS protein) [OD450 nm] | mouse B lymphocyte proliferation (OD450 nm), antibody 100 nM (mouse BLyS protein) [OD450 nm] | MFI [1] [MFI] | MFI [2] [MFI] | MFI [3] [MFI] | MFI [4] [MFI] | MFI [5] [MFI] | MFI [6] [MFI] | MFI [7] [MFI] | MFI [8] [MFI] | MFI [9] [MFI] | MFI [10] [MFI] | further results
1 | B1 | 1990 | 2210 | 2380 | 2240 | 2390 | 2410 | 2510 | 2340 | 2470 | 2480 | 31.2 | 336 | 300 | 356 | 20.2 | 132 | 249 | 61.3 | 39.5 | 636 | MFI [11]: 594 MFI; MFI [12]: 664 MFI; MFI [13]: 235 MFI; MFI [14]: 480 MFI; MFI [15]: 106 MFI; MFI [16]: 37.7 MFI
2 | B2 | 2120 | 2390 | 2200 | 2110 | 2260 | 2330 | 2490 | 2410 | 2240 | 2070 | 31.2 | 371 | 279 | 432 | 20.3 | 60 | 129 | 37.1 | 33.2 | 738 | MFI [11]: 518 MFI; MFI [12]: 842 MFI; MFI [13]: 76.6 MFI; MFI [14]: 213 MFI; MFI [15]: 35.3 MFI; MFI [16]: 24.7 MFI
3 | B3 | 2090 | 2170 | 2270 | 2170 | 2390 | 2370 | 2640 | 2480 | 2640 | 2480 | 31 | 406 | 374 | 431 | 21.2 | 92.1 | 192 | 48.1 | 37 | 829 | mouse B lymphocyte proliferation (OD450 nm), antibody 0 nM [17]: 3440 OD450 nm; mouse B lymphocyte proliferation (OD450 nm), antibody 0.000256 nM [17]: 3120 OD450 nm; mouse B lymphocyte proliferation (OD450 nm), antibody 0.00128 nM [17]: 3700 OD450 nm; mouse B lymphocyte proliferation (OD450 nm), antibody 0.0064 nM [17]: 3700 OD450 nm; mouse B lymphocyte proliferation (OD450 nm), antibody 0.032 nM [17]: 3360 OD450 nm; mouse B lymphocyte proliferation (OD450 nm), antibody 0.16 nM [17]: 3270 OD450 nm; mouse B lymphocyte proliferation (OD450 nm), antibody 0.8 nM [17]: 530 OD450 nm; mouse B lymphocyte proliferation (OD450 nm), antibody 4 nM [17]: 431 OD450 nm; mouse B lymphocyte proliferation (OD450 nm), antibody 20 nM [17]: 433 OD450 nm; mouse B lymphocyte proliferation (OD450 nm), antibody 100 nM [17]: 414 OD450 nm; MFI [11]: 726 MFI; MFI [12]: 884 MFI; MFI [13]: 125 MFI; MFI [14]: 355 MFI; MFI [15]: 53.6 MFI; MFI [16]: 32.1 MFI
